From patent US20080096807A1, “Cyclic vasoactive intestinal peptide receptor-2 agonists” (priority 2006, published 2008)
Bridge positions count the residues as written; N and C are the ends. Square brackets hold non-standard residues; d marks the D form. Peptide text beside a SMILES is read from it. ξ: configuration not given here. Thr(3ξ) = CC(O)[C@H](N)C(=O)O; αMeV = CC(C)[C@](C)(N)C(=O)O; Nle = CCCC[C@H](N)C(=O)O

T1: human neutrophil elastase (Homo sapiens, UniProt P08246)
T1 sequence (P08246 30-247 limits assumed): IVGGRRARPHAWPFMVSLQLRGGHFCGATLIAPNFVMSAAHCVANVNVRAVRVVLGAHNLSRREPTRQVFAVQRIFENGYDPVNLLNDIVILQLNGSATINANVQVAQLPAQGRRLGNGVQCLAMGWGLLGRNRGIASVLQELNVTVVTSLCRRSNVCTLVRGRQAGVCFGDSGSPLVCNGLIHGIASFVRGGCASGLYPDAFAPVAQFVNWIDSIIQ

T2: VPAC2 receptor (Homo sapiens, UniProt P41587)
T2 construct: The human T-lymphoid cell line Sup-Ti, which expresses the VPAC2 receptor; host or cells: Sup-T1 (Sup-Ti [sic]) human T-lymphoid cell line
T2 sequence (P41587 24-438): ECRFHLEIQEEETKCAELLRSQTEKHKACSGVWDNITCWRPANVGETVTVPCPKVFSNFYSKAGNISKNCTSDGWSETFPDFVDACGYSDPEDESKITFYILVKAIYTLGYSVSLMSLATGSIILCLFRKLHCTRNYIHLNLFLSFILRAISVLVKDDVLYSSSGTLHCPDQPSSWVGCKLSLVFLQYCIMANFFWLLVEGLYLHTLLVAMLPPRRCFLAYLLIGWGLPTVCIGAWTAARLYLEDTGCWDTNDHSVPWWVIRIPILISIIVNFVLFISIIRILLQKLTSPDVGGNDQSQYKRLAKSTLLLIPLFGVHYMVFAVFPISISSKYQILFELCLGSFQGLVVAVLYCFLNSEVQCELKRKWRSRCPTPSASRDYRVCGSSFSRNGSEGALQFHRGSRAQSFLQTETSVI

T3: VPAC2 receptor (human, UniProt P41587)
T3 sequence: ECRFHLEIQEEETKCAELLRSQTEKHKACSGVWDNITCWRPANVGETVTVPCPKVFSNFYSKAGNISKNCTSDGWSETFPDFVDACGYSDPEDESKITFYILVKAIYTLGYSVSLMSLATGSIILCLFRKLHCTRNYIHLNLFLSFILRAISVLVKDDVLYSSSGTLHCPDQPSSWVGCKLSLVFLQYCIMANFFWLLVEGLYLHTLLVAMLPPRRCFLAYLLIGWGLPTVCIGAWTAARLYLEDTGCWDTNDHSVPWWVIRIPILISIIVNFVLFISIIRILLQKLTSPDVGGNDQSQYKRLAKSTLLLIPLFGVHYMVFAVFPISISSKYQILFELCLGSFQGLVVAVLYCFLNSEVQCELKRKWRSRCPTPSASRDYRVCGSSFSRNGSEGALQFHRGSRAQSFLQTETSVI


Assays:
[1] = molecular target: T1, human neutrophil elastase; experiment: Peptide stability to neutrophil elastase (RP HPLC ESI MS); details: halftime with human neutrophil elastase 1 to 2 μg/mL in PBS, ambient temperature, normalized to halftime of the reference standard
VPAC2 receptor [2] = molecular target: T2, VPAC2 receptor; experiment: Sup-T1 cAMP agonist assay; type: cell-based; details: human T-lymphoid cell line Sup-T1 expressing VPAC2 receptor; cAMP EIA; 5 min at room temperature; read-out: Sup-T1 cAMP EC50
Summary of the method: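 Sup-T1 human T-lymphoid cells with endogenous VPAC2 (RPMI 1640, 25 mM HEPES, 10% FBS) were plated at 4×10^4 cells/well and exposed to compound for 5 min at room temperature. After lysis, cAMP was measured by enzyme immunoassay. EC50 came from a sigmoidal fit of 7-concentration dose-response data.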

[3] = test system: methacholine-induced bronchospasm in mice; experiment: Methacholine-induced bronchospasm in mice (whole body plethysmography, Penh); type: in vivo; details: balb/c mice; drug by aerosol for 20 minutes before spasmogen challenge; relative to vehicle
Experimental: Respiratory function is measured in conscious, freely moving mice using whole body plethysmographs (WBP) from BUXCO Electronics, Inc. (Troy, N.Y.). WBP chambers allow animals to move freely within the chamber while respiratory function is measured. Eight chambers are used simultaneously so that eight mice can be measured at the same time. Each WBP chamber is connected to a bias flow regulator to supply a smooth, constant flow of fresh air during testing. A transducer attached to each chamber detects pressure changes that occur as the animal breathes. Pressure signals are amplified by a MAX II Strain Gauge preamplifier and analyzed by the Biosystem XA software supplied with the system (BUXCO Electronics, Inc.). Pressure changes within each chamber are calibrated prior to testing by injecting exactly 1 ml of air through the injection port and adjusting the computer signal accordingly. Mice are placed in the WBP chambers and allowed to acclimate for 10 minutes prior to testing. Testing is conducted by letting the animals move and breathe freely for 15 minutes while the following parameters are measured: Tidal Volume (ml), Respiratory Rate (breaths per minutes), Minute Volume (tidal volume multiplied by respiratory rate, ml/min), Inspiratory Time (sec), Expiratory Time (sec), Peak Inspiratory Flow (ml/sec), and Peak Expiratory Flow (ml/sec). Raw data for each of the parameters listed above are captured in the software database and averaged once per minute to give a total of 15 data points per parameter. The average of the 15 data points is reported. Accumulated Volume (ml) is a cumulative value (not averaged) and represents the sum of all tidal volumes for the 15-minute test session. The protocol is customized to include measurements before, during, and after a spasmogen challenge to determine Penh. Dose-response effects of a particular spasmogen (i.e. methacholine (MCh), acetylcholine, etc.) are obtained by giving nebulized aerosol (30-60 sec exposure) at approximately 5-10 min intervals. Mice (balb/c) are treated with vehicle (2% DMSO in H2O) or drug dissolved in 4 ml vehicle for 20 minutes by aerosol, as described above, prior to spasmogen challenge. Penh is determined at 5, 30 and 60 minutes post-challenge. Data are reported as percent inhibition of Penh relative to vehicle.

VPAC2 receptor [4] = molecular target: T3, VPAC2 receptor; experiment: cell-based or functional assay

| Relative elastase stability [1] | EC50 (VPAC2 receptor [2]) [nM] | Sup-T1 cAMP EC50 (VPAC2 receptor [4]) [nM] | Molecule | Inhibition of Penh at 5 minutes post-challenge [3] |
| --- | --- | --- | --- | --- |
| 5.1 | 276 |  | CCCC[C@H](NC(=O)[C@H](CCCNC(=N)N)NC(=O)[C@H](CCCCN)NC(=O)[C@H](CCCNC(=N)N)NC(=O)[C@H](CC(C)C)NC(=O)[C@H](CCCCN)NC(=O)[C@@H](NC(=O)[C@H](Cc1ccc(O)cc1)NC(=O)[C@H](CC(N)=O)NC(=O)[C@H](CCC(=O)O)NC(=O)[C@@H](NC(=O)[C@H](Cc1ccccc1)NC(=O)[C@H](CO)NC(=O)[C@H](C)NC(=O)[C@H](CC(=O)O)NC(=O)[C@H](C)NC(=O)[C@H](Cc1c[nH]cn1)NC(C)=O)C(C)O)C(C)O)C(=O)N[C@@H](CCCCN)C(=O)N[C@@H](C)C(=O)N[C@@H](CCCCN)C(=O)N[C@H]1CCCCNC(=O)C[C@@H](C(=O)N[C@@H](CC(C)C)C(=O)N[C@@H](CCCCN)C(=O)N[C@@H](CCCCN)C(=O)NCC(=O)NCC(=O)N[C@H](C(N)=O)C(C)O)NC(=O)[C@H](CC(N)=O)NC(=O)[C@H](CC(C)C)NC(=O)[C@H](Cc2ccc(O)cc2)NC1=O (stereo partly shown) [Example 18] (Ac-HADASF[Thr(3ξ)]ENY[Thr(3ξ)]KLRKR[Nle]KAKKYLNDLKKGG[Thr(3ξ)]-NH2; lactam 21-25) | + (+ >50%) |
|  |  | 9.45 | Ac-HSDA[αMeV]FTENYTKLRKQ[Nle]AAKKYLNDLLKGGT-NH2 (lactam 21-25; not fully specified (residue 11); printed as Ac-His-Ser-Asp-Ala-MeVal-Phe-Thr-Glu-Asn-Tyr-thr-Lys-Leu-Arg-Lys-Gln-Nle-Ala-Ala-Lys-Lys-Tyr-Leu-Asn-Asp-Leu-Leu-Lys-Gly-Gly-Thr-NH2) |  |

The next lines start with the molecule.

| Molecule | Relative elastase stability [1] | EC50 (VPAC2 receptor [2]) [nM] | Sup-T1 cAMP EC50 (VPAC2 receptor [4]) [nM] | Inhibition of Penh at 5 minutes post-challenge [3] |
| --- | --- | --- | --- | --- |
| Ac-HADA[αMeV]FTENYTKLRKQ[Nle]AAKKYLNDLKKGGT-NH2 (lactam 21-25; SMILES CCCC[C@H](NC(=O)[C@H](CCC(N)=O)NC(=O)[C@H](CCCCN)NC(=O)[C@H](CCCNC(=N)N)NC(=O)[C@H](CC(C)C)NC(=O)[C@H](CCCCN)NC(=O)[C@@H](NC(=O)[C@H](Cc1ccc(O)cc1)NC(=O)[C@H](CC(N)=O)NC(=O)[C@H](CCC(=O)O)NC(=O)[C@@H](NC(=O)[C@H](Cc1ccccc1)NC(=O)[C@@](C)(NC(=O)[C@H](C)NC(=O)[C@H](CC(=O)O)NC(=O)[C@H](C)NC(=O)[C@H](Cc1c[nH]cn1)NC(C)=O)C(C)C)[C@@H](C)O)[C@@H](C)O)C(=O)N[C@@H](C)C(=O)N[C@@H](C)C(=O)N[C@@H](CCCCN)C(=O)N[C@H]1CCCCNC(=O)C[C@@H](C(=O)N[C@@H](CC(C)C)C(=O)N[C@@H](CCCCN)C(=O)N[C@@H](CCCCN)C(=O)NCC(=O)NCC(=O)N[C@H](C(N)=O)[C@@H](C)O)NC(=O)[C@H](CC(N)=O)NC(=O)[C@H](CC(C)C)NC(=O)[C@H](Cc2ccc(O)cc2)NC1=O) |  |  | 4.75 |  |
| Ac-HADA[αMeV]FTENYTKLRKQ[Nle]AAKKYLNDLLKGGT-NH2 (lactam 21-25; SMILES CCCC[C@H](NC(=O)[C@H](CCC(N)=O)NC(=O)[C@H](CCCCN)NC(=O)[C@H](CCCNC(=N)N)NC(=O)[C@H](CC(C)C)NC(=O)[C@H](CCCCN)NC(=O)[C@@H](NC(=O)[C@H](Cc1ccc(O)cc1)NC(=O)[C@H](CC(N)=O)NC(=O)[C@H](CCC(=O)O)NC(=O)[C@@H](NC(=O)[C@H](Cc1ccccc1)NC(=O)[C@@](C)(NC(=O)[C@H](C)NC(=O)[C@H](CC(=O)O)NC(=O)[C@H](C)NC(=O)[C@H](Cc1c[nH]cn1)NC(C)=O)C(C)C)[C@@H](C)O)[C@@H](C)O)C(=O)N[C@@H](C)C(=O)N[C@@H](C)C(=O)N[C@@H](CCCCN)C(=O)N[C@H]1CCCCNC(=O)C[C@@H](C(=O)N[C@@H](CC(C)C)C(=O)N[C@@H](CC(C)C)C(=O)N[C@@H](CCCCN)C(=O)NCC(=O)NCC(=O)N[C@H](C(N)=O)[C@@H](C)O)NC(=O)[C@H](CC(N)=O)NC(=O)[C@H](CC(C)C)NC(=O)[C@H](Cc2ccc(O)cc2)NC1=O) |  |  | 4.07 |  |
| Ac-HSDA[αMeV]FTENYTKLRKR[Nle]AAKKYLNDLKKGGT-NH2 (lactam 21-25; SMILES CCCC[C@H](NC(=O)[C@H](CCCNC(=N)N)NC(=O)[C@H](CCCCN)NC(=O)[C@H](CCCNC(=N)N)NC(=O)[C@H](CC(C)C)NC(=O)[C@H](CCCCN)NC(=O)[C@@H](NC(=O)[C@H](Cc1ccc(O)cc1)NC(=O)[C@H](CC(N)=O)NC(=O)[C@H](CCC(=O)O)NC(=O)[C@@H](NC(=O)[C@H](Cc1ccccc1)NC(=O)[C@@](C)(NC(=O)[C@H](C)NC(=O)[C@H](CC(=O)O)NC(=O)[C@H](CO)NC(=O)[C@H](Cc1c[nH]cn1)NC(C)=O)C(C)C)[C@@H](C)O)[C@@H](C)O)C(=O)N[C@@H](C)C(=O)N[C@@H](C)C(=O)N[C@@H](CCCCN)C(=O)N[C@H]1CCCCNC(=O)C[C@@H](C(=O)N[C@@H](CC(C)C)C(=O)N[C@@H](CCCCN)C(=O)N[C@@H](CCCCN)C(=O)NCC(=O)NCC(=O)N[C@H](C(N)=O)[C@@H](C)O)NC(=O)[C@H](CC(N)=O)NC(=O)[C@H](CC(C)C)NC(=O)[C@H](Cc2ccc(O)cc2)NC1=O) |  |  | 10.5 |  |
